# Laboratory results taken from publication PMC4971840.
# Molecular target: GST-CypA (human cyclophilin A fused to GST), P62937-1
# Assay: His6-HIVCA pull-down assay, SDS/PAGE band densitometry
# Conditions: n = 3; *P < 0.05; parent: est. 0.45; read off a plot
row,Substance,other: CypA/CA ratio
1,wild-type HIV-1 capsid protein with an N-terminal 6-his tag (His6-HIVCA) (from UniProt P04591) A77P,0.063

# Same assay, conditions: n = 3; parent: est. 0.45; read off a plot
row,Substance,other: CypA/CA ratio
1,wild-type HIV-1 capsid protein with an N-terminal 6-his tag (His6-HIVCA) (from UniProt P04591) W23A,0.26
2,wild-type HIV-1 capsid protein with an N-terminal 6-his tag (His6-HIVCA) (from UniProt P04591) L189P,0.43
3,wild-type HIV-1 capsid protein with an N-terminal 6-his tag (His6-HIVCA) (from UniProt P04591) L189F,0.53
4,wild-type HIV-1 capsid protein with an N-terminal 6-his tag (His6-HIVCA) (from UniProt P04591) L189I,0.36
5,wild-type HIV-1 capsid protein with an N-terminal 6-his tag (His6-HIVCA) (from UniProt P04591) A78V,0.43
